Results from publication PMC6697640.

Biological target: 3X N-terminal FLAG-tagged PTEN (phosphatase and tensin homolog), wild type (UniProt P60484)
Experiment: native gel or EMSA; co-IPs from total lysate of BT-549-PTEN cells followed by Western blot under non-denaturing conditions; dimers seen in the input lane and in the co-immunoprecipitate

- stoichiometry N: 2
Substance: 3X N-terminal FLAG-tagged PTEN (phosphatase and tensin homolog), wild type, P60484 1-403 (enzyme; other documents disagree on this pair)
